What all share (assay): cell-based or functional assay
The target of test [1] is HA of wild type A/Shanghai/1/2013 (H7N9) virus (influenza A virus A/Shanghai/1/2013 (H7N9)).
The target of test [2] is HA of A/California/04/2009 (H1N1) virus (influenza A virus A/California/04/2009 (H1N1)).
For test [3], the target named is all H3N2 and H7 strains (plaque reduction assay).

A value given as a limit tells only on which side of the number the result lay.

B1: 042-100809-2F04 (antibody, V domains shown)
VH: EVQLVESGGGLVQPGGSLRLSCVASGFTFSTPWMTWIRQAPGKGLEWVAHIKQDGSETYYVDSVKGRFTISRDNAKNSLYLQMNSLKAEDTALYYCARMTRESSENYWGQGTLVTVSS
VL: DVVMTQSPLSLPVTLGQPASISCRSSQSLVYSDGDTFLEWFQQRPGQSPRRLIYKVSNRDSGVPDRFSGSGSGTDFTLKISRVEAEDVGLYYCMQHTHWPHTFGQGTKVEIK
As to B1, the PRNT50 (plaque reduction assay) in test [1] worked out at 27 µg/mL.

B2: S6-B01 (antibody, V domains shown)
VH: QVQLVQSGAEVKKPGASVKVSCKASGYTFNSYGISWVRQAPGQGLEWMGWISAYTGDTKFAQNVQGRVTMTIDTSTSTAYMELRSLRSDDTAVYYCARHYLQGVVVVDPYSHAMDVWGQGTTVTVSS
VL: EIVLTQSPGTLSFFPGERATLSCRASQTINSRFLAWYQQKPGQAPRLLIYGASSRATGIPDRFSGRGSGTDFTLAISRLEPEDFAVYYCQLYGSSRTTFGQGTKVEIK
On to B2, for which the figures for the PRNT50 (plaque reduction assay) in test [2] and in test [3] were > 120 µg/mL and 3 to 6 µg/mL, respectively.
